Paper doi:10.64898/2025.12.30.697032

Biological target: cauliflower mitoribosome small subunit (cauliflower (B. oleracea))
Experiment: cryo-EM structure; in vitro reconstitution (first reaction): 2.7 ug/uL mtSSU, 500 nM rps3 mRNA (51 nt), 500 nM mtIF3, 2 min at 37 °C, then 10 min on ice; Initiation buffer (20 mM HEPES-KOH pH 7.6, 75 mM KCl, 40 mM MgCl2); gives mtPIC-1 and mtPIC-2

percent of mtSSU particles accommodating mtIF3: 70%
B1: Arabidopsis mitochondrial initiation factor 3 (natural protein)
chain: MAIWRIINRSYLKYASNQLTRNYYTQVCLASSTHVVKQTTKLSSFDIPNSDICTRPSNIFQNLRFLATSAQTRKKEAEVDSDGPRLNEKITGDYVRLVSEEGHCVVSLREALRRAKELQCDLVEVQRDAKPPVCKIVKYSLELYKKAKVGKERAKAKRAEAIRPDIKEIRFTPKIEAKDLKFKSDQALKLMESGYRVKCLAVPDKDKHKELEPEKLLELLFRFTCFIGDALVESWPEADRKGAVVIVRHAKFGPPKKGGVKLMKDIDIKSARVKEESPKPDSSKAGVATVDDQEDIEKSEPRFSVEQAQPVKFQNAYAKREPSSEFSGGRDASRFEPQSPNQHVNPQRPRFSNQAPNQQPTGRFDPQSPNQPPSAPRPQFPNQQPTGRFDPQFPSQPPRPQFPNQAPNQQSTGRFNPQFPNQRPSPPQSRFPDQAPNQQPSGPSPNRHPDRQGPPPRFQNQAPNQQPTGRFEPQPPNPPRAPPRPQTRLPNETSNEQPTAPGRSSGPASGYGIFSTPKTK
